Laboratory results published in publication PMC4496087.

Columns and labels:
[1] = target: Wild type CCR5, endogenous on human monocyte-derived macrophages (human (endogenous in monocyte-derived macrophages)) (UniProt P51681)
[2] = target: Wild type CCR5, endogenous on human monocyte-derived macrophages (human (endogenous in monocyte-derived macrophages)), P51681; assay: radioligand binding; competition: human macrophages (membranes) pretreated with different amounts of CCR5-T4L or CCL5, or CCL5 plus CCR5-T4L; specific binding of 0.3 nmol/L [125I]-CCL5, 2 h at 37°C, unbound ligand removed through a 10% sucrose/PBS cushion, gamma counting; conditions: remark: other sources report otherwise

EC50 [2]	Molecule	[35S]GTPγS binding to membranes of human MDM (G-protein activation), EC50 [1]
	Soluble recombinant CCR5-T4L protein (receptor)	5460 nM
0.046 nM	Chemokine (C-C motif) ligand 5 (CCL5), unlabelled, P13501 24-91 (ligand) SPYSSDTTPCCFAYIARPLPRAHIKEYFYTSGKCSNPAVVFVTRKNRQVCANPEKKWVREYINSLEMS	
